# B1: Multidrug resistance-associated protein 1 (Homo sapiens) (protein)
# chain: MALRGFCSADGSDPLWDWNVTWNTSNPDFTKCFQNTVLVWVPCFYLWACFPFYFLYLSRHDRGYIQMTPLNKTKTALGFLLWIVCWADLFYSFWERSRGIFLAPVFLVSPTLLGITMLLATFLIQLERRKGVQSSGIMLTFWLVALVCALAILRSKIMTALKEDAQVDLFRDITFYVYFSLLLIQLVLSCFSDRSPLFSETIHDPNPCPESSASFLSRITFWWITGLIVRGYRQPLEGSDLWSLNKEDTSEQVVPVLVKNWKKECAKTRKQPVKVVYSSKDPAQPKESSKVDANEEVEALIVKSPQKEWNPSLFKVLYKTFGPYFLMSFFFKAIHDLMMFSGPQILKLLIKFVNDTKAPDWQGYFYTVLLFVTACLQTLVLHQYFHICFVSGMRIKTAVIGAVYRKALVITNSARKSSTVGEIVNLMSVDAQRFMDLATYINMIWSAPLQVILALYLLWLNLGPSVLAGVAVMVLMVPVNAVMAMKTKTYQVAHMKSKDNRIKLMNEILNGIKVLKLYAWELAFKDKVLAIRQEELKVLKKSAYLSAVGTFTWVCTPFLVALCTFAVYVTIDENNILDAQTAFVSLALFNILRFPLNILPMVISSIVQASVSLKRLRIFLSHEELEPDSIERRPVKDGGGTNSITVRNATFTWARSDPPTLNGITFSIPEGALVAVVGQVGCGKSSLLSALLAEMDKVEGHVAIKGSVAYVPQQAWIQNDSLRENILFGCQLEEPYYRSVIQACALLPDLEILPSGDRTEIGEKGVNLSGGQKQRVSLARAVYSNADIYLFDDPLSAVDAHVGKHIFENVIGPKGMLKNKTRILVTHSMSYLPQVDVIIVMSGGKISEMGSYQELLARDGAFAEFLRTYASTEQEQDAEENGVTGVSGPGKEAKQMENGMLVTDSAGKQLQRQLSSSSSYSGDISRHHNSTAELQKAEAKKEETWKLMEADKAQTGQVKLSVYWDYMKAIGLFISFLSIFLFMCNHVSALASNYWLSLWTDDPIVNGTQEHTKVRLSVYGALGISQGIAVFGYSMAVSIGGILASRCLHVDLLHSILRSPMSFFERTPSGNLVNRFSKELDTVDSMIPEVIKMFMGSLFNVIGACIVILLATPIAAIIIPPLGLIYFFVQRFYVASSRQLKRLESVSRSPVYSHFNETLLGVSVIRAFEEQERFIHQSDLKVDENQKAYYPSIVANRWLAVRLECVGNCIVLFAALFAVISRHSLSAGLVGLSVSYSLQVTTYLNWLVRMSSEMETNIVAVERLKEYSETEKEAPWQIQETAPPSSWPQVGRVEFRNYCLRYREDLDFVLRHINVTINGGEKVGIVGRTGAGKSSLTLGLFRINESAEGEIIIDGINIAKIGLHDLRFKITIIPQDPVLFSGSLRMNLDPFSQYSDEEVWTSLELAHLKDFVSALPDKLDHECAEGGENLSVGQRQLVCLARALLRKTKILVLDEATAAVDLETDDLIQSTIRTQFEDCTVLTIAHRLNTIMDYTRVIVLDKGEIQEYGAPSDLLQQRGLFYSMAKDAGLV
# Experiments:
# [1] = substrate: N[C@@H](CCC(=O)N[C@H](CSc1ccc([N+](=O)[O-])cc1[N+](=O)[O-])C(=O)NCC(=O)O)C(=O)O; experiment: (§1) TP_TRANSPORTER: uptake in membrane vesicles from GLC4/ADR cells; format: functional, cell membranes, GLC-4/ADR, Membrane vesicle
# [2] = substrate: N[C@@H](CCC(=O)N[C@@H](CSSC[C@H](NC(=O)CC[C@H](N)C(=O)O)C(=O)NCC(=O)O)C(=O)NCC(=O)O)C(=O)O; experiment: as §1; format: functional, cell membranes, GLC-4/ADR, Membrane vesicle
protein,measurement,setting,value
B1,Km,[1],1.2 µM
same,Km,[2],43 µM

# From ChEMBL document CHEMBL2074115, “Anthracyclines modulate multidrug resistance protein (MRP) mediated organic anion transport” (Biochim Biophys Acta, 1997)
